These results are taken from US20180055768A1 (Harvard, published 2018).

The target in this assay is T1, FLAG-tagged wild-type (wt) ARRDC1 (Homo sapiens, UniProt Q8N5I2 1-433).
T1 construct: Expressed in 293T cells and immunoprecipitated with anti-FLAG; also called Flag-ARRDC1; arrestin domain-containing protein 1; not shown: FLAG tag
T1 sequence: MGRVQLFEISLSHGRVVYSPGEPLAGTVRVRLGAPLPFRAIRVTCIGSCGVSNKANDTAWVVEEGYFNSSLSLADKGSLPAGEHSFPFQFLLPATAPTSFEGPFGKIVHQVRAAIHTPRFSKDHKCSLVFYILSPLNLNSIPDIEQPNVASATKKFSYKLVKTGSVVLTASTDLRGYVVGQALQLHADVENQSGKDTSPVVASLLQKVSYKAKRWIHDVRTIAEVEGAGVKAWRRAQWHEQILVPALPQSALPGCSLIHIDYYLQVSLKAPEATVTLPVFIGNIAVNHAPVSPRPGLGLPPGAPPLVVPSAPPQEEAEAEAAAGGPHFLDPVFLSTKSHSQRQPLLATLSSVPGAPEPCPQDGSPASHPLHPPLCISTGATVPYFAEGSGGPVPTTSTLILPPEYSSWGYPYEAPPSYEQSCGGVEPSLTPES
The assay is described as follows: co-immunoprecipitation from transfected 293T cells, Western blot (FIG. 1D).

B1: HA-tagged mutant (M95A) TSG101 (other)
chain: MAVSESQLKKMVSKYKYRDLTVRETVNVITLYKDLKPVLDSYVFNDGSSRELMNLTGTIPVPYRGNTYNIPICLWLLDTYPYNPPICFVKPTSSATIKTGKHVDANGKIYLPYLHEWKHPQSDLLGLIQVMIVVFGDEPPVFSRPISASYPPYQATGPPNTSYMPGMPGGISPYPSGYPPNPSGYPGCPYPPGGPYPATTSSQYPSQPPVTTVGPSRDGTISEDTIRASLISAVSDKLRWRMKEEMDRAQAELNALKRTEEDLKKGHQKLEEMVTRLDQEVAEVDKNIELLKKKDEELSSALEKMENQSENNDIDEVIIPTAPLYKQILNLYAEENAIEDTIFYLGEALRRGVIDLDVFLKHVRLLSRKQFQLRALMQKARKTAGLSDLY
notes: Expressed in 293T cells; also called TSG101 M95A; not shown: HA tag
Regarding B1, the binding result is listed as “no binding”.
